Experimental data published in paper PMC3042207 (British Journal of Pharmacology, 2011).
Numbering of substitutions follows the chain as printed. In names and notes the source's numbering stands. Several values for one entry are separate records, joined by “and”; a condition that tells them apart may be missing. Identical values can stand only once. Like-named read-outs stand apart in the source and are kept apart here.

Columns and labels:
CYP2C8 = conditions: ref Ong et al., 2000; cited from earlier work
[1] = test system: human liver microsomes (HLM); experiment: CYP inhibition: 4-HPR metabolite formation in HLM with CYP inhibitors; assay type: in vitro ADME; conditions: HLM + 4-HPR; inhibitor alone at 100 µM
[2] = substrate: CC1=C(/C=C/C(C)=C/C=C/C(C)=C/C(=O)Nc2ccc(O)cc2)C(C)(C)CCC1; experiment: Metabolism of 4-HPR by CYP2C8 supersomes; assay type: in vitro ADME, human; conditions: other: CYP2C8 supersomes; 4-HPR 0-20 µM, 3 h; 37.0 °C
[3] = substrate: CC1=C(/C=C/C(C)=C/C=C/C(C)=C/C(=O)Nc2ccc(O)cc2)C(C)(C)CCC1; assay type: in vitro ADME, human; conditions: other: CYP2C8*3, E. coli membranes; 4-HPR 0-20 µM, 3 h; pH 5.0
[4] = substrate: CC1=C(/C=C/C(C)=C/C=C/C(C)=C/C(=O)Nc2ccc(O)cc2)C(C)(C)CCC1; experiment: Metabolism of 4-HPR by CYP3A5 supersomes; assay type: in vitro ADME, human; conditions: other: CYP3A5 supersomes; 4-HPR 0-20 µM, 3 h; 37.0 °C
[5] = substrate: CC1=C(/C=C/C(C)=C/C=C/C(C)=C/C(=O)Nc2ccc(O)cc2)C(C)(C)CCC1; experiment: Glucuronidation of 4-HPR by UGT 1A3 supersomes; assay type: in vitro ADME, human; conditions: other: UGT 1A3, 1 mg·mL^−1; 4-HPR 0-2000 µM, 3 h; 37.0 °C
[6] = substrate: CC1=C(/C=C/C(C)=C/C=C/C(C)=C/C(=O)Nc2ccc(O)cc2)C(C)(C)CCC1; experiment: Glucuronidation of 4-HPR by UGT 1A6 supersomes; assay type: in vitro ADME, human; conditions: other: UGT 1A6, 1 mg·mL^−1; 4-HPR 0-2000 µM, 3 h; 37.0 °C
[7] = substrate: CC1=C(/C=C/C(C)=C/C=C/C(C)=C/C(=O)Nc2ccc(O)cc2)C(C)(C)CCC1; experiment: Glucuronidation of 4-HPR by UGT 1A1 supersomes; assay type: in vitro ADME, human; conditions: other: UGT 1A1, 1 mg·mL^−1; 4-HPR 0-2000 µM, 3 h; 37.0 °C

Question: Which “concentrations at which CYP2C8 is markedly inhibited” value (CYP2C8) does the source give for CC(=O)N1CCN(c2ccc(OCC3COC(Cn4ccnc4)(c4ccc(Cl)cc4Cl)O3)cc2)CC1 (centres unmarked) [Ketoconazole, ketoconazole] here?
Answer: > 10 µM

Question: For COc1ccc2[nH]c([S+]([O-])Cc3ncc(C)c(OC)c3C)nc2c1 (centres unmarked) [Omeprazole, omeprazole], which “effect on production of 4′-OH 4-HPR and 4′-oxo 4-HPR, inhibitor alone” value [1] is on record?
Answer: very little effect

B1: CYP2C8 (Homo sapiens) (protein)
chain: MEPFVVLVLCLSFMLLFSLWRQSCRRRKLPPGPTPLPIIGNMLQIDVKDICKSFTNFSKVYGPVFTVYFGMNPIVVFHGYEAVKEALIDNGEEFSGRGNSPISQRITKGLGIISSNGKRWKEIRRFSLTTLRNFGMGKRSIEDRVQEEAHCLVEELRKTKASPCDPTFILGCAPCNVICSVVFQKRFDYKDQNFLTLMKRFNENFRILNSPWIQVCNNFPLLIDCFPGTHNKVLKNVALTRSYIREKVKEHQASLDVNNPRDFIDCFLIKMEQEKDNQKSEFNIENLVGTVADLFVAGTETTSTTLRYGLLLLLKHPEVTAKVQEEIDHVIGRHRSPCMQDRSHMPYTDAVVHEIQRYSDLVPTGVPHAVTTDTKFRNYLIPKGTTIMALLTSVLHDDKEFPNPNIFDPGHFLDKNGNFKKSDYFMPFSAGKRICAGEGLARMELFLFLTTILQNFNLKSVDDLKNLNTTAVTKGIVSLPPSYQICFIPV
Question: For B1, which Km [2] is on record?
Answer: 5.0 ± 3.1 µM and 2.2 ± 1.1 µM

B2: CYP2C8*3 (Homo sapiens; K399R/R139K) (protein)
chain: B1 chain with R139K, K399R
Question: Which Km [3] does the source give for B2 here?
Answer: 18.8 ± 8.3 µM and 8.6 ± 2.5 µM

B3: CYP3A5 (Homo sapiens) (protein)
chain: MDLIPNLAVETWLLLAVSLVLLYLYGTRTHGLFKRLGIPGPTPLPLLGNVLSYRQGLWKFDTECYKKYGKMWGTYEGQLPVLAITDPDVIRTVLVKECYSVFTNRRSLGPVGFMKSAISLAEDEEWKRIRSLLSPTFTSGKLKEMFPIIAQYGDVLVRNLRREAEKGKPVTLKDIFGAYSMDVITGTSFGVNIDSLNNPQDPFVESTKKFLKFGFLDPLFLSIILFPFLTPVFEALNVSLFPKDTINFLSKSVNRMKKSRLNDKQKHRLDFLQLMIDSQNSKETESHKALSDLELAAQSIIFIFAGYETTSSVLSFTLYELATHPDVQQKLQKEIDAVLPNKAPPTYDAVVQMEYLDMVVNETLRLFPVAIRLERTCKKDVEINGVFIPKGSMVVIPTYALHHDPKYWTEPEEFRPERFSKKKDSIDPYIYTPFGTGPRNCIGMRFALMNMKLALIRVLQNFSFKPCKETQIPLKLDTQGLLQPEKPIVLKVDSRDGTLSGE
Question: With B3 as the molecule, how does the Km [4] read?
Answer: 19.1 ± 5.0 µM

B4: UGT 1A3 (Homo sapiens) (protein)
chain: GKVLVVPIDGSHWLSMREVLRELHARGHQAVVLTPEVNMHIKEENFFTLTTYAISWTQDEFDRHVLGHTQLYFETEHFLKKFFRSMAMLNNMSLVYHRSCVELLHNEALIRHLNATSFDVVLTDPVNLCAAVLAKYLSIPTVFFLRNIPCDLDFKGTQCPNPSSYIPRLLTTNSDHMTFMQRVKNMLYPLALSYICHAFSAPYASLASELFQREVSVVDILSHASVWLFRGDFVMDYPRPIMPNMVFIGGINCANRKPLSQEFEAYINASGEHGIVVFSLGSMVSEIPEKKAMAIADALGKIPQTVLWRYTGTRPSNLANNTILVKWLPQNDLLGHPMTRAFITHAGSHGVYESICNGVPMVMMPLFGDQMDNAKRMETKGAGVTLNVLEMTSEDLENALKAVINDKSYKENIMRLSSLHKDRPVEPLDLAVFWVEFVMRHKGAPHLRPAAHDLTWYQYHSLDVIGFLLAVVLTVAFITFKCCAYGYRKCLGKKGRVKKAHKSKTH
Question: With B4 as the molecule, how does the Km [5] read?
Answer: 389 ± 53 µM

B5: UGT 1A6 (Homo sapiens) (protein)
chain: DKLLVVPQDGSHWLSMKDIVEVLSDRGHEIVVVVPEVNLLLKESKYYTRKIYPVPYDQEELKNRYQSFGNNHFAERSFLTAPQTEYRNNMIVIGLYFINCQSLLQDRDTLNFFKESKFDALFTDPALPCGVILAEYLGLPSVYLFRGFPCSLEHTFSRSPDPVSYIPRCYTKFSDHMTFSQRVANFLVNLLEPYLFYCLFSKYEELASAVLKRDVDIITLYQKVSVWLLRYDFVLEYPRPVMPNMVFIGGINCKKRKDLSQEFEAYINASGEHGIVVFSLGSMVSEIPEKKAMAIADALGKIPQTVLWRYTGTRPSNLANNTILVKWLPQNDLLGHPMTRAFITHAGSHGVYESICNGVPMVMMPLFGDQMDNAKRMETKGAGVTLNVLEMTSEDLENALKAVINDKSYKENIMRLSSLHKDRPVEPLDLAVFWVEFVMRHKGAPHLRPAAHDLTWYQYHSLDVIGFLLAVVLTVAFITFKCCAYGYRKCLGKKGRVKKAHKSKTH
Question: For B5, which Km [6] is on record?
Answer: 422 ± 46 µM

B6: UGT 1A1 (Homo sapiens) (protein)
chain: HAGKILLIPVDGSHWLSMLGAIQQLQQRGHEIVVLAPDASLYIRDGAFYTLKTYPVPFQREDVKESFVSLGHNVFENDSFLQRVIKTYKKIKKDSAMLLSGCSHLLHNKELMASLAESSFDVMLTDPFLPCSPIVAQYLSLPTVFFLHALPCSLEFEATQCPNPFSYVPRPLSSHSDHMTFLQRVKNMLIAFSQNFLCDVVYSPYATLASEFLQREVTVQDLLSSASVWLFRSDFVKDYPRPIMPNMVFVGGINCLHQNPLSQEFEAYINASGEHGIVVFSLGSMVSEIPEKKAMAIADALGKIPQTVLWRYTGTRPSNLANNTILVKWLPQNDLLGHPMTRAFITHAGSHGVYESICNGVPMVMMPLFGDQMDNAKRMETKGAGVTLNVLEMTSEDLENALKAVINDKSYKENIMRLSSLHKDRPVEPLDLAVFWVEFVMRHKGAPHLRPAAHDLTWYQYHSLDVIGFLLAVVLTVAFITFKCCAYGYRKCLGKKGRVKKAHKSKTH
Question: With B6 as the molecule, how does the Km [7] read?
Answer: 716 ± 87 µM
